Results published in paper PMC4527729, “The Inner Membrane Protein PilG Interacts with DNA and the Secretin PilQ in Transformation”.

Experiments:
[1] = target: PilG FL (Neisseria meningitidis MC58) (UniProt Q7DDR1); assay: EMSA; conditions: Optimized EMSA: 50 mM HEPES pH 7.5, 100 mM NaCl, 5 mM MgCl2, 1 mM DTT, 10% glycerol, 0.05% DDM, on ice 15 min, 0.45 nM DNA; first EMSA: 25 mM NaH2PO4 pH 8.0 …
PilG257-410 = PilG257-410 (Neisseria meningitidis MC58, UniProt Q7DDR1 257-410); assay: South-western; Optimized EMSA: 50 mM HEPES pH 7.5, 100 mM NaCl, 5 mM MgCl2, 1 mM DTT, 10% glycerol, 0.05% DDM, on ice 15 min, 0.45 nM DNA; first EMSA: 25 mM NaH2PO4 pH 8.0, 150 mM NaCl, 1 mM DTT, 10% glycerol, 0.05% DDM, on ice; conditions: protein: recombinant, tags: C-terminal 6xHis, label: 32P end label
PilG30-80 = PilG30-80 (Neisseria meningitidis MC58, UniProt Q7DDR1 30-80); assay: as above; conditions: protein: recombinant, tags: C-terminal 6xHis, label: 32P end label
PilG166-410 = PilG166-410 (Neisseria meningitidis MC58, UniProt Q7DDR1 166-410); assay: as above; conditions: protein: recombinant, tags: C-terminal 6xHis, label: 32P end label
PilG1-60 = PilG1-60 (Neisseria meningitidis MC58, UniProt Q7DDR1 1-60); assay: as above; conditions: protein: recombinant, tags: C-terminal 6xHis, label: 32P end label
PilG FL [2] = target: T1, PilG FL (Neisseria meningitidis MC58, UniProt Q7DDR1 1-410); assay: EMSA; optimized EMSA; R2 0.91?; Optimized EMSA: 50 mM HEPES pH 7.5, 100 mM NaCl, 5 mM MgCl2, 1 mM DTT, 10% glycerol, 0.05% DDM, on ice 15 min, 0.45 nM DNA; first EMSA: 25 mM NaH2PO4 pH 8.0, 150 mM NaCl, 1 mM DTT, 10% glycerol, 0.05% DDM, on ice; conditions: protein: recombinant; tags: C-terminal 6xHis; label: 32P end label
PilG EEE39-41AAA [3] = target: T2, PilG EEE39-41AAA (Neisseria meningitidis MC58, UniProt Q7DDR1 1-410, E39A;E40A;E41A); assay: South-western; increased vs FL per text; Optimized EMSA: 50 mM HEPES pH 7.5, 100 mM NaCl, 5 mM MgCl2, 1 mM DTT, 10% glycerol, 0.05% DDM, on ice 15 min, 0.45 nM DNA; first EMSA: 25 mM NaH2PO4 pH 8.0, 150 mM NaCl, 1 mM DTT, 10% glycerol, 0.05% DDM, on ice; conditions: protein: recombinant; tags: C-terminal 6xHis; label: 32P end label
PilG RKK43-45AAA = PilG RKK43-45AAA (Neisseria meningitidis MC58, UniProt Q7DDR1 1-410, R43A;K44A;K45A); assay: EMSA; extrapolated; about 50% bound at 5 uM per text; Optimized EMSA: 50 mM HEPES pH 7.5, 100 mM NaCl, 5 mM MgCl2, 1 mM DTT, 10% glycerol, 0.05% DDM, on ice 15 min, 0.45 nM DNA; first EMSA: 25 mM NaH2PO4 pH 8.0, 150 mM NaCl, 1 mM DTT, 10% glycerol, 0.05% DDM, on ice; conditions: protein: recombinant; tags: C-terminal 6xHis; label: 32P end label
PilG1-178 [4] = target: T3, PilG1-178 (Neisseria meningitidis MC58, UniProt Q7DDR1 1-178); assay: South-western; Optimized EMSA: 50 mM HEPES pH 7.5, 100 mM NaCl, 5 mM MgCl2, 1 mM DTT, 10% glycerol, 0.05% DDM, on ice 15 min, 0.45 nM DNA; first EMSA: 25 mM NaH2PO4 pH 8.0, 150 mM NaCl, 1 mM DTT, 10% glycerol, 0.05% DDM, on ice; conditions: protein: recombinant, tags: C-terminal 6xHis, label: 32P end label
PilG1-256 = PilG1-256 (Neisseria meningitidis MC58, UniProt Q7DDR1 1-256); assay: as above; conditions: protein: recombinant, tags: C-terminal 6xHis, label: 32P end label
PilG1-140 = PilG1-140 (Neisseria meningitidis MC58, UniProt Q7DDR1 1-140); assay: as above; conditions: protein: recombinant, tags: C-terminal 6xHis, label: 32P end label
PilG1-80 = PilG1-80 (Neisseria meningitidis MC58, UniProt Q7DDR1 1-80); assay: as above; conditions: protein: recombinant, tags: C-terminal 6xHis, label: 32P end label
PilG FL [5] = target: T1, PilG FL; assay: as above; conditions: protein: recombinant, tags: C-terminal 6xHis, label: 32P end label
PilG Q55A = PilG Q55A (Neisseria meningitidis MC58, UniProt Q7DDR1 1-410, Q55A); assay: South-western; same as FL; Optimized EMSA: 50 mM HEPES pH 7.5, 100 mM NaCl, 5 mM MgCl2, 1 mM DTT, 10% glycerol, 0.05% DDM, on ice 15 min, 0.45 nM DNA; first EMSA: 25 mM NaH2PO4 pH 8.0, 150 mM NaCl, 1 mM DTT, 10% glycerol, 0.05% DDM, on ice; conditions: protein: recombinant; tags: C-terminal 6xHis; label: 32P end label
PilG SS62-63AA = PilG SS62-63AA (Neisseria meningitidis MC58, UniProt Q7DDR1 1-410, S62A;S63A); assay: as above; conditions: protein: recombinant; tags: C-terminal 6xHis; label: 32P end label
PilG EEE39-41AAA [6] = target: T2, PilG EEE39-41AAA; assay: South-western; increased vs FL; Optimized EMSA: 50 mM HEPES pH 7.5, 100 mM NaCl, 5 mM MgCl2, 1 mM DTT, 10% glycerol, 0.05% DDM, on ice 15 min, 0.45 nM DNA; first EMSA: 25 mM NaH2PO4 pH 8.0, 150 mM NaCl, 1 mM DTT, 10% glycerol, 0.05% DDM, on ice; conditions: protein: recombinant; tags: C-terminal 6xHis; label: 32P end label
PilG1-178 [7] = target: T3, PilG1-178; assay: EMSA; 5 mM MgCl2; Optimized EMSA: 50 mM HEPES pH 7.5, 100 mM NaCl, 5 mM MgCl2, 1 mM DTT, 10% glycerol, 0.05% DDM, on ice 15 min, 0.45 nM DNA; first EMSA: 25 mM NaH2PO4 pH 8.0, 150 mM NaCl, 1 mM DTT, 10% glycerol, 0.05% DDM, on ice; conditions: protein: recombinant; tags: C-terminal 6xHis; label: 32P end label; blunt

Molecule: 52 bp dsDNA, S3 Fig
- Kd [1]: 300 nM

B1: HH8 (ssDNA)
DNA: GTTGTTGTTGTTTTCAGACGGCATGTTGGTTCAGACGGCATTTGTTGTTGTT
- binding result (PilG257-410): no binding
- binding result (PilG30-80): no binding
- binding result (PilG166-410): no binding
- binding result (PilG1-60): no binding
- apparent K (half saturation) (PilG FL [2]): 1160 nM
- binding result (PilG EEE39-41AAA [3]): binds
- apparent K (half saturation) (PilG RKK43-45AAA): ~15.7 mM

B2: T1 (ssDNA)
DNA: CAACAACAACAACAGCCGTCTGAACCAAATTCAGACGGCAACAACAACAACA
- binding result (PilG1-178 [4]): binds
- binding result (PilG257-410): no binding
- binding result (PilG30-80): no binding
- binding result (PilG166-410): no binding
- binding result (PilG1-256): binds
- binding result (PilG1-140): binds
- binding result (PilG1-80): binds
- binding result (PilG1-60): no binding
- binding result (PilG FL [5]): binds
- binding result (PilG Q55A): binds
- binding result (PilG SS62-63AA): binds
- binding result (PilG EEE39-41AAA [3]): binds

B3: HH9 (ssDNA)
DNA: GTTGTTGTTGTTATGCCGTCTGAAGTTGGATGCCGTCTGAATTGTTGTTGTT
- binding result (PilG1-178 [4]): binds
- binding result (PilG257-410): no binding
- binding result (PilG30-80): no binding
- binding result (PilG166-410): no binding
- binding result (PilG1-256): binds
- binding result (PilG1-140): binds
- binding result (PilG1-80): binds
- binding result (PilG1-60): no binding
- binding result (PilG FL [5]): binds
- binding result (PilG Q55A): binds
- binding result (PilG SS62-63AA): binds
- binding result (PilG EEE39-41AAA [6]): binds

B4: T1T2 (dsDNA)
DNA 1: B2 DNA
DNA 2: TGTTGTTGTTGTTGCCGTCTGAATTTGGTTCAGACGGCTGTTGTTGTTGTTG
- binding result (PilG1-178 [4]; blunt): binds
- binding result (PilG257-410; blunt): no binding
- binding result (PilG30-80; blunt): no binding
- binding result (PilG166-410; blunt): no binding
- binding result (PilG1-256; blunt): binds
- binding result (PilG1-140; blunt): binds
- binding result (PilG1-80; blunt): binds
- binding result (PilG1-60; blunt): no binding
- binding result (PilG FL [5]; blunt): binds

B5: T3 (ssDNA)
DNA: CAACAACAACAACAGGCCTGTCATCCAAAATGACAGGCCAACAACAACAACA
- binding result (PilG1-178 [4]): binds
- binding result (PilG257-410): no binding
- binding result (PilG30-80): no binding
- binding result (PilG166-410): no binding
- binding result (PilG1-256): binds
- binding result (PilG1-140): binds
- binding result (PilG1-80): binds
- binding result (PilG1-60): no binding
- binding result (PilG FL [5]): binds

B6: T3T4 (dsDNA)
DNA 1: B5 DNA
DNA 2: TGTTGTTGTTGTTGGCCTGTCATTTTGGATGACAGGCCTGTTGTTGTTGTTG
- binding result (PilG1-178 [4]; blunt): binds
- binding result (PilG257-410; blunt): no binding
- binding result (PilG30-80; blunt): no binding
- binding result (PilG166-410; blunt): no binding
- binding result (PilG1-256; blunt): binds
- binding result (PilG1-140; blunt): binds
- binding result (PilG1-80; blunt): binds
- binding result (PilG1-60; blunt): no binding
- binding result (PilG FL [5]; blunt): binds

B7: HH10HH11 (dsDNA DUS-) (dsDNA)
DNA 1: AACAACAACAAAAGGCCTGTCATCCAACTTCCGGACAGTAAACAACAACAAC
DNA 2: GTTGTTGTTGTTTACTGTCCGGAAGTTGGATGACAGGCCTTTTGTTGTTGTT
- apparent K (half saturation) (PilG1-178 [7]): 269 nM
